This is an account of results in PMC6724690 (Molecular Biology of the Cell, 2019).

Data set [1] addresses porcine αβ-tubulin, as dynamic microtubules polymerizing from soluble αβ-tubulin (porcine) (UniProt P02550). The experiment in a line: TIRF microscopy of dynamic microtubules.
Data set [2] has the same target. The experiment in a line: single-molecule TIRF microscopy of dynamic microtubules.
Data set [3] deals with the molecule itself. The experiment in a line: single-molecule fluorescence intensity distribution.

B1: Alp14 (residues 1–690) C-terminally fused to mNeonGreen (domain or fragment)
chain: MSQDQEEDYSKLPLESRIVHKVWKVRLSAYEECSKSFSLSADGSDNCFELWNNQSELWKSVLTDSNVAAQEAGTAAFVAYCRFSDPSHLLKAREISVLSISEKCLTSPRAGTRENALEALMLLVEADSAAPVIESIIPSLSARSPKVIASNVAAIASLVEQFGAKVIPSKMIIPHISNLFGHADKNVRKEASRLTVNIYRWTGDPLKDLLFKDLRPVQTKELESLFAELPTEPPKQTRFLKSQQPTSEPNVETQVEEQPALENEESEPEPSDDQFDLVEEVDVLPNVDPNLETLMASSKWKDRKEALDKLLPVLSQPKIKDNDFFNLVAILTKSVSKDANIMVVINAAHCIQAMAKGLRSNFSKYASTSINALLERSKEKKANVIESLSSAMDAVLATSSLDDLAELIASFAGNKNPQIKSSCFSLFSRSFSNMTSLPSKFTVDTCAKACVPGVSDTFEPVRSAAAEALGVLMKLVGERAINQYLSPLDDIRKSKIRSFYETATVKAKAPTKKSKVKPSKQEESKVVVPSNAKAVKKSVVPSSPVVPSPRKATNKSLSMDVSKGNAFENGPLLPRPTTRPVSRGLSRGTSSSLQQKVKASTPLNSGALNETVQNLKNMELDDPAPQPAKHSRVDRYEHPKVLEDNDSTISSLESLKRENEELREQLKVEHEENISMQKQLSELKGELNTL
Turning to B1, in data set [1], the average MT plus-end tracking ratio worked out at 0.89 and the average tracking time at MT plus ends came out at 125 s.

B2: C-terminal-SNAPf-tagged Alp14 (residues 1–690), labelled with SNAP-surface Atto-488 (domain or fragment, S. pombe, UniProt O94534 1-690, looked up)
chain: B1 chain
modifications: SNAP-surface Atto-488 fluorophore covalently attached to the SNAP tag
One may read the stoichiometry N as the number of molecules, sites or subunits per partner or assembly. As for B2, the mean dwell time at polymerizing MT plus ends in data set [2] amounted to 129 s. Also, the “stoichiometry N” value in data set [3] worked out at 2.
